Experimental data from PMC5452015, “Sen1 has unique structural features grafted on the architecture of the Upf1‐like helicase family” (The EMBO Journal, 2017).

Assays:
[1] = biological target: T1, Sen1Hel (crystal construct, loop 1,471-1,538 removed) (Saccharomyces cerevisiae, UniProt Q00416, DEL1471-1538); assay: X-ray crystal structure, […] A; type: binding; settings: 10-fold molar excess ADP, HEPES pH 7.5, 4 C; nucleotide site on RecA1, no RNA
T1 construct: gene SEN1; helicase core 1095-1904 with disordered loop 1471-1538 replaced by a (Gly-Ser)2 linker; C-terminal CPD-His8 tag cut off with 3C; expressed in E. coli; model covers 1096-1875
T1 sequence (Q00416 with tags, fused parts or gaps DEL1471-1538): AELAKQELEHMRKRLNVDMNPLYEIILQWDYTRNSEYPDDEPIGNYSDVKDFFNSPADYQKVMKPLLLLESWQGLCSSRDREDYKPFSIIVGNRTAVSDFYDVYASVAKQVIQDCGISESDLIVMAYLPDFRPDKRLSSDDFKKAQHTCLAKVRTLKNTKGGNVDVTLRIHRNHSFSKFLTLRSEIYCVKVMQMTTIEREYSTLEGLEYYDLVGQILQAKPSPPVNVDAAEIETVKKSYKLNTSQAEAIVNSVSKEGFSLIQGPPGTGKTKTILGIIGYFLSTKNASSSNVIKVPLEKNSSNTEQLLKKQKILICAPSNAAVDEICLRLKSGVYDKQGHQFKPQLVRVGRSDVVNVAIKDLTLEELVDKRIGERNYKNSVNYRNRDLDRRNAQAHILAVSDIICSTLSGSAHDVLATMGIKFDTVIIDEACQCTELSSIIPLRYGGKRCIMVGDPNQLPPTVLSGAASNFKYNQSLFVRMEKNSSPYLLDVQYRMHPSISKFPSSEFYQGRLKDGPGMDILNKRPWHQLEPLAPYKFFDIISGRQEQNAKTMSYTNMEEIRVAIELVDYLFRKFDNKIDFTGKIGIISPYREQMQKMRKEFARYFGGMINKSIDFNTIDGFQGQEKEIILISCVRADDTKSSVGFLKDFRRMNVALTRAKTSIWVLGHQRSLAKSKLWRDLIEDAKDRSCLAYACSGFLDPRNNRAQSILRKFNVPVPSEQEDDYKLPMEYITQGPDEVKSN

Sen1Hel = biological target: T2, Sen1Hel (Saccharomyces cerevisiae, UniProt Q00416); assay: ATP hydrolysis, alpha-32P-ATP, thin-layer chromatography; type: biochemical; settings: polyU 50 ng/ul, 250 uM ATP, 1 mM MgCl2, pH 7.5, 28 C
T2 construct: gene SEN1; helicase core 1095-1904, ~90 kDa; C-terminal CPD-His8 tag cut off with 3C protease; expressed in E. coli BL21 (DE3) STAR pRARE
T2 sequence (Q00416 1095-1904): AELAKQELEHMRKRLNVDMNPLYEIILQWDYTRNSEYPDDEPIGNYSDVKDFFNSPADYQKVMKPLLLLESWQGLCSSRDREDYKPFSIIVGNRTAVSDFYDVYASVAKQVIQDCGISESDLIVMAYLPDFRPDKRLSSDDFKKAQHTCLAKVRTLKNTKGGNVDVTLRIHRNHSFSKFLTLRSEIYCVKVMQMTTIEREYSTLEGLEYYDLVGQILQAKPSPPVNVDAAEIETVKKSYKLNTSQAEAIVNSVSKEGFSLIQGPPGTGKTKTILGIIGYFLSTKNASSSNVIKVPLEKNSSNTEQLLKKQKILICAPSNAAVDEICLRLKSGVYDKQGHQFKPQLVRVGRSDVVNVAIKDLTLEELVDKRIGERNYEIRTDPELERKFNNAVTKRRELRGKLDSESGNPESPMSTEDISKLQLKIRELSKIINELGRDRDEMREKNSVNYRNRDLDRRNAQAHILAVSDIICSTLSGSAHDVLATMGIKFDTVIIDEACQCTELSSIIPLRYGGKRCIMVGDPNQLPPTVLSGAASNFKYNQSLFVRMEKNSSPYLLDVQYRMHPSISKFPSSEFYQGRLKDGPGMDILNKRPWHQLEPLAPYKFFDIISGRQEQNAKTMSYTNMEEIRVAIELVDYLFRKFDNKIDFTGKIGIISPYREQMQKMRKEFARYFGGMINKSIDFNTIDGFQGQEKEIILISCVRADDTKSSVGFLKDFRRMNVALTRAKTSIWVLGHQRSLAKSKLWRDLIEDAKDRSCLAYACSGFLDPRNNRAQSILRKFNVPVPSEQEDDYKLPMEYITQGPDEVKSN

Sen1Hel N1413S = biological target: T3, Sen1Hel N1413S (Saccharomyces cerevisiae, UniProt Q00416 1095-1904, N1413S); assay: fluorescence anisotropy; 2 mM Mg2+; text says impaired; FA: 20 mM Hepes pH 7.5, 300 mM NaCl, 2 mM MgCl2, 1 mM DTT, 20 C, 10 nM RNA; EMSA: 2 nM RNA, 10-160 nM protein (buffer not in the material); settings: protein: recombinant; tags: C-terminal CPD-His8 removed by 3C; label: 5' fluorescein
T3 sequence: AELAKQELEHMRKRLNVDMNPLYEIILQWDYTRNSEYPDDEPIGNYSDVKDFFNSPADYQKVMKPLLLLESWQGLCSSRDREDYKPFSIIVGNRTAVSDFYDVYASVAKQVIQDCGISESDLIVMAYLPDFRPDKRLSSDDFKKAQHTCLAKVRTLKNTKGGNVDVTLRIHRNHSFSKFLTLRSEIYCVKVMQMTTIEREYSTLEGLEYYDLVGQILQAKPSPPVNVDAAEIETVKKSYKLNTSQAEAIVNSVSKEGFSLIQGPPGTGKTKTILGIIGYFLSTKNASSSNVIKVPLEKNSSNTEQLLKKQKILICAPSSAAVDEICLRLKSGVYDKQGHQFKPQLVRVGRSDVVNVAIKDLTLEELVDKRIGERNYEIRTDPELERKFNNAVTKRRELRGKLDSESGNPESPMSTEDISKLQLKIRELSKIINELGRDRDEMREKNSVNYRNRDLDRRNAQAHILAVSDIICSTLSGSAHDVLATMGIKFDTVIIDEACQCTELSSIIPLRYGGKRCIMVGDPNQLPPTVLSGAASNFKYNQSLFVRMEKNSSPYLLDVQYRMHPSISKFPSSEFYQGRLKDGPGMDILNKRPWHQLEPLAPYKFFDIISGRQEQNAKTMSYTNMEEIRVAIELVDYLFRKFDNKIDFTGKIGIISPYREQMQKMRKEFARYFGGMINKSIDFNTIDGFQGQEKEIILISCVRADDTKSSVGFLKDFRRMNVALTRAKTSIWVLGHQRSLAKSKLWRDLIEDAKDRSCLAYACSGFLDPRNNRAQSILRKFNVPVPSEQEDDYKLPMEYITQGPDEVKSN

Sen1Hel (wild type) [2] = biological target: T4, Sen1Hel (wild type) (Saccharomyces cerevisiae, UniProt Q00416 1095-1904); assay: fluorescence anisotropy; 2 mM Mg2+; FA: 20 mM Hepes pH 7.5, 300 mM NaCl, 2 mM MgCl2, 1 mM DTT, 20 C, 10 nM RNA; EMSA: 2 nM RNA, 10-160 nM protein (buffer not in the material); settings: protein: recombinant; tags: C-terminal CPD-His8 removed by 3C; label: 5' fluorescein
T4 sequence: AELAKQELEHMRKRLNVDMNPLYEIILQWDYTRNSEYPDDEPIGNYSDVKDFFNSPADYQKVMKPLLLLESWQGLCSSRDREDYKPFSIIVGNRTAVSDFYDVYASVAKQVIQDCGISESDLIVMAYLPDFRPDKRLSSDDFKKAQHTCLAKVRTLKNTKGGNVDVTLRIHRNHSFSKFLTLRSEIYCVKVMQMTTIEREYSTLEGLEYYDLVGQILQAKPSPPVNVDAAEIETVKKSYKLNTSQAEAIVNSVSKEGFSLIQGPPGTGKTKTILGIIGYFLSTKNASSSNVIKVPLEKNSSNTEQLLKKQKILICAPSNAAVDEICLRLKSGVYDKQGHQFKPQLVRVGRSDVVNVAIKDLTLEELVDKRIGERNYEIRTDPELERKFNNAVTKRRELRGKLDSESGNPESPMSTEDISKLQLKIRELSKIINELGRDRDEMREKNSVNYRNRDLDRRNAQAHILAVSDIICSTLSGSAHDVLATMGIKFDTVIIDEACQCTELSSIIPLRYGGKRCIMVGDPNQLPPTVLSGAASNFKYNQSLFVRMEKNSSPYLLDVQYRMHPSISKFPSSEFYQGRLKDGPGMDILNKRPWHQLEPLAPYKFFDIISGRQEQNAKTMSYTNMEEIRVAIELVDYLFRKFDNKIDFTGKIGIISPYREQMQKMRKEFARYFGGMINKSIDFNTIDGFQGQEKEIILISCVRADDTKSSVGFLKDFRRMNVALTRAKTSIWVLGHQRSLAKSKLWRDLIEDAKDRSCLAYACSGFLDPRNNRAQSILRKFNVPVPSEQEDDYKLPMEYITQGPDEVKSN

Sen1Hel P1622L = biological target: T5, Sen1Hel P1622L (Saccharomyces cerevisiae, UniProt Q00416 1095-1904, P1622L); assay: as above; settings: protein: recombinant; tags: C-terminal CPD-His8 removed by 3C; label: 5' fluorescein
T5 sequence: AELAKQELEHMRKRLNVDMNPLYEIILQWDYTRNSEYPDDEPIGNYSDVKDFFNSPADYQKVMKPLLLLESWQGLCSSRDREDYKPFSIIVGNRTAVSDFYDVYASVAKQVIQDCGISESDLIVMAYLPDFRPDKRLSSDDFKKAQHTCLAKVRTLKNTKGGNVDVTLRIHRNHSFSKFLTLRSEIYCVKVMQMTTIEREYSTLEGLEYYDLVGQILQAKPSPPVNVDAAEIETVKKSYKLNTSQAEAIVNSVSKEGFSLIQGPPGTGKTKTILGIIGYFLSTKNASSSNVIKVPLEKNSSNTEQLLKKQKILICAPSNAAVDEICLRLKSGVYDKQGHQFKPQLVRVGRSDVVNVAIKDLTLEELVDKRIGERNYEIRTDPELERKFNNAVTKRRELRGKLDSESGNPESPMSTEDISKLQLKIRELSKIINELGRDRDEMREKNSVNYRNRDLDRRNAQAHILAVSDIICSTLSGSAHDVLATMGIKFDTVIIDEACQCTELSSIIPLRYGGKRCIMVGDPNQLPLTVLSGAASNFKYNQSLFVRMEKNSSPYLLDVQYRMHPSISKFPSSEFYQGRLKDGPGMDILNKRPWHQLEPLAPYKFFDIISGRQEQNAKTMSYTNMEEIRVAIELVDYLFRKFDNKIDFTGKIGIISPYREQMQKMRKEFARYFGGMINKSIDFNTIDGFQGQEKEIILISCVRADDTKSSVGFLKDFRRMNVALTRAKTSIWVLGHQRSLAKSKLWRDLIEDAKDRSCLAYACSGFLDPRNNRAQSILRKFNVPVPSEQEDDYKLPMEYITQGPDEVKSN

Sen1Hel deltaLP = biological target: T6, Sen1Hel deltaLP (Saccharomyces cerevisiae, UniProt Q00416 1095-1904, del1461-1554); assay: EMSA; FA: 20 mM Hepes pH 7.5, 300 mM NaCl, 2 mM MgCl2, 1 mM DTT, 20 C, 10 nM RNA; EMSA: 2 nM RNA, 10-160 nM protein (buffer not in the material); settings: protein: recombinant; tags: C-terminal CPD-His8 removed by 3C; label: 5' fluorescent label
T6 sequence: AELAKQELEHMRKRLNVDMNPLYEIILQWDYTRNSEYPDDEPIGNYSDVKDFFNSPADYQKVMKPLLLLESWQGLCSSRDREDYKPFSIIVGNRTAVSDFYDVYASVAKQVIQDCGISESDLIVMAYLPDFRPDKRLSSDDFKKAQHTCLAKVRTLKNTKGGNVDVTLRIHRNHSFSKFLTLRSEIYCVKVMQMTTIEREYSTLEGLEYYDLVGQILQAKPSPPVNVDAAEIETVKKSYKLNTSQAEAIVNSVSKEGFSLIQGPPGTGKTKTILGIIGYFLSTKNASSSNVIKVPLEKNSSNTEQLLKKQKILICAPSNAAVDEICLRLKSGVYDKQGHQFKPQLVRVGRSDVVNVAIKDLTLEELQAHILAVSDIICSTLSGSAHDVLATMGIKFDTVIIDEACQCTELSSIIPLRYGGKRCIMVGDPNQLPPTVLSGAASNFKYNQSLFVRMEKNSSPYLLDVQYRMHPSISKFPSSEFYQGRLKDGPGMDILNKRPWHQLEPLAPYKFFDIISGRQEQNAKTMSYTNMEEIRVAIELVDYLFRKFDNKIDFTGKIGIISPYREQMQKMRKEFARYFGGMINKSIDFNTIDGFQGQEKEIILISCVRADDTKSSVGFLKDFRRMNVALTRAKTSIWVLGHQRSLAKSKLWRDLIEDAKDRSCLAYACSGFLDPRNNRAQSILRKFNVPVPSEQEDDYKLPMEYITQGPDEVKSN

Sen1Hel (wild type) [3] = biological target: T4, Sen1Hel (wild type); assay: EMSA; high-order complexes at high protein; FA: 20 mM Hepes pH 7.5, 300 mM NaCl, 2 mM MgCl2, 1 mM DTT, 20 C, 10 nM RNA; EMSA: 2 nM RNA, 10-160 nM protein (buffer not in the material); settings: protein: recombinant; tags: C-terminal CPD-His8 removed by 3C; label: 5' fluorescent label

In the case of `Nc1ncnc2c1ncn2[C@@H]1O[C@H](COP(=O)(O)OP(=O)(O)O)[C@@H](O)[C@H]1O` [ADP], the “X-ray crystal structure, 1.8 A” value [1] is reported as “We crystallized Sen1Hel in the presence of ADP and determined the structure”.

With `Nc1ncnc2c1ncn2[C@@H]1O[C@H](COP(=O)(O)OP(=O)(O)OP(=O)(O)O)[C@@H](O)[C@H]1O` [ATP] the “ATP hydrolysis, alpha-32P-ATP, thin-layer chromatography” value (Sen1Hel) was “Sen1Hel showed levels of RNA‐dependent ATPase activity similar to those of full‐length Sen1”.

With UUUCUAUUUAUUUUG (ssRNA) [ARE 15-mer AU-rich RNA] the binding result (Sen1Hel N1413S) was “no binding”, the Kd (Sen1Hel (wild type) [2]) was roughly 0.6 µM and the Kd (Sen1Hel P1622L) was roughly 6.4 µM.

UUCAUUUCAGACCAGCACCCACUCACUACAACUCACGACCAGGC (ssRNA) [DL3316 44-mer RNA]: binds (Sen1Hel deltaLP); binds (Sen1Hel (wild type) [3]).
